Residue numbers refer to the chain shown, from its start. Names and notes keep the numbering of the source.
B1: K85V (designed binder)
chain: SMEEEVEKAAKEYEKKKKEAIEKHLEKLKAKDKEAAERFLKELEEAAKEYAKDEAKTMSEEEAKRRAKKYKEKVLLSELSEEEQVEIKEAEEKLVRTILKYVEEAAK
B2: E54H (designed binder)
chain: B1 chain with E54H, V85K
B3: L76Y (designed binder)
chain: B1 chain with L76Y, V85K
B4: A35T (designed binder)
chain: B1 chain with A35T, V85K
B5: D32T (designed binder)
chain: B1 chain with D32T, V85K
B6: S80I (designed binder)
chain: B1 chain with S80I, V85K
B7: E78C (designed binder)
chain: B1 chain with E78C, V85K
B8: A105G (designed binder)
chain: B1 chain with V85K, A105G
B9: E5S (designed binder)
chain: B1 chain with E5S, V85K
B10: L94D (designed binder)
chain: B1 chain with V85K, L94D
B11: A46L (designed binder)
chain: B1 chain with A46L, V85K
B12: A20K (designed binder)
chain: B1 chain with A20K, V85K
B13: E4W (designed binder)
chain: B1 chain with E4W, V85K
B14: E12H (designed binder)
chain: B1 chain with E12H, V85K
B15: A46K (designed binder)
chain: B1 chain with A46K, V85K
B16: E91M (designed binder)
chain: B1 chain with V85K, E91M
B17: E61Y (designed binder)
chain: B1 chain with E61Y, V85K
B18: E42I (designed binder)
chain: B1 chain with E42I, V85K
B19: K18M (designed binder)
chain: B1 chain with K18M, V85K
B20: R38Y (designed binder)
chain: B1 chain with R38Y, V85K
B21: V74S (designed binder)
chain: B1 chain with V74S, V85K
B22: V74Y (designed binder)
chain: B1 chain with V74Y, V85K
B23: K71I (designed binder)
chain: B1 chain with K71I, V85K
B24: T57A (designed binder)
chain: B1 chain with T57A, V85K
B25: D53W (designed binder)
chain: B1 chain with D53W, V85K
B26: E92D (designed binder)
chain: B1 chain with V85K, E92D
B27: K16S (designed binder)
chain: B1 chain with K16S, V85K
B28: M2L (designed binder)
chain: B1 chain with M2L, V85K
B29: A30G (designed binder)
chain: B1 chain with A30G, V85K
B30: A10P (designed binder)
chain: B1 chain with A10P, V85K
B31: K27H (designed binder)
chain: B1 chain with K27H, V85K
B32: K15V (designed binder)
chain: B1 chain with K15V, V85K
B33: A36N (designed binder)
chain: B1 chain with A36N, V85K
B34: E4F (designed binder)
chain: B1 chain with E4F, V85K
B35: E19C (designed binder)
chain: B1 chain with E19C, V85K
B36: E78T (designed binder)
chain: B1 chain with E78T, V85K
B37: V95Q (designed binder)
chain: B1 chain with V85K, V95Q
B38: R96V (designed binder)
chain: B1 chain with V85K, R96V
B39: K29N (designed binder)
chain: B1 chain with K29N, V85K
B40: F39K (designed binder)
chain: B1 chain with F39K, V85K
B41: S77K (designed binder)
chain: B1 chain with S77K, V85K
B42: A105L (designed binder)
chain: B1 chain with V85K, A105L
B43: S80R (designed binder)
chain: B1 chain with S80R, V85K
B44: K17H (designed binder)
chain: B1 chain with K17H, V85K
B45: K33N (designed binder)
chain: B1 chain with K33N, V85K
B46: K31G (designed binder)
chain: B1 chain with K31G, V85K
B47: E61H (designed binder)
chain: B1 chain with E61H, V85K
B48: V95H (designed binder)
chain: B1 chain with V85K, V95H
B49: E83M (designed binder)
chain: B1 chain with E83M, V85K
B50: E37T (designed binder)
chain: B1 chain with E37T, V85K
B51: Y13L (designed binder)
chain: B1 chain with Y13L, V85K
B52: V6L (designed binder)
chain: B1 chain with V6L, V85K
B53: E7Y (designed binder)
chain: B1 chain with E7Y, V85K
B54: L79E (designed binder)
chain: B1 chain with L79E, V85K
B55: E19L (designed binder)
chain: B1 chain with E19L, V85K

Biological target: T1, TNFR1 (Homo sapiens, UniProt P19438)
T1 chain: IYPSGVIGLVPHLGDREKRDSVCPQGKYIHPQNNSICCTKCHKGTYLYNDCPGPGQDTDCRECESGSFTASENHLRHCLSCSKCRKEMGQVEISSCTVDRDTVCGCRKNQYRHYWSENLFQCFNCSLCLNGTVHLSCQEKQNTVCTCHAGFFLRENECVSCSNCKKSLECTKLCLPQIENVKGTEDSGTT
Test: yeast display SC50

Row | Binder | apparent Kd (screen)
1 | B1 | 1.05 nM
2 | B2 | 12.5 nM
3 | B3 | 2.05 nM
4 | B4 | 0.593 nM
5 | B5 | 1.4 nM
6 | B6 | 1.69 nM
7 | B7 | 0.49 nM
8 | B8 | 0.446 nM
9 | B9 | 0.593 nM
10 | B10 | 1.86 nM
11 | B11 | 12.5 nM
12 | B12 | 0.446 nM
13 | B13 | 1.54 nM
14 | B14 | 0.49 nM
15 | B15 | 4.39 nM
16 | B16 | 11.4 nM
17 | B17 | 1.86 nM
18 | B18 | 6.43 nM
19 | B19 | 1.05 nM
20 | B20 | 0.49 nM
21 | B21 | 22.2 nM
22 | B22 | 9.41 nM
23 | B23 | 0.539 nM
24 | B24 | 2.73 nM
25 | B25 | 10.4 nM
26 | B26 | 0.446 nM
27 | B27 | 3 nM
28 | B28 | 1.05 nM

Row | Binder | apparent Kd (screen)
29 | B29 | 0.956 nM
30 | B30 | 11.4 nM
31 | B31 | 0.446 nM
32 | B32 | 1.05 nM
33 | B33 | 2.73 nM
34 | B34 | 1.69 nM
35 | B35 | 0.446 nM
36 | B36 | 1.27 nM
37 | B37 | 11.4 nM
38 | B38 | 0.869 nM
39 | B39 | 0.539 nM
40 | B40 | 8.56 nM
41 | B41 | 4.83 nM
42 | B42 | 1.86 nM
43 | B43 | 0.593 nM
44 | B44 | 0.869 nM
45 | B45 | 1.05 nM
46 | B46 | 0.653 nM
47 | B47 | 1.54 nM
48 | B48 | 11.4 nM
49 | B49 | 0.446 nM
50 | B50 | 0.539 nM
51 | B51 | 1.86 nM
52 | B52 | 3 nM
53 | B53 | 7.07 nM
54 | B54 | 18.3 nM
55 | B55 | 0.49 nM
